PMC4204856, “Application of a Novel Alkali-Tolerant Thermostable DyP-Type Peroxidase from Saccharomonospora viridis DSM 43017 in Biobleaching of Eucalyptus Kraft Pulp” (PLoS ONE, 2014)

Legend:
purified protein [1] = substrate: Nc1c(S(=O)(=O)O)cc(Nc2cccc(S(=O)(=O)CCOS(=O)(=O)O)c2)c2c1C(=O)c1ccccc1C2=O; test: purified protein; assay type: biochemical, Saccharomonospora viridis; details: H2O2 co-substrate (0.1 mM in all tests), 50 mM phosphate pH 7.0, standard assay 60°C, temperature of kinetics not stated
purified protein [2] = substrate: CCN(CC)c1ccc(C(=C2C=CC(=[N+](CC)CC)C=C2)c2ccccc2)cc1; test: purified protein; assay type: biochemical, Saccharomonospora viridis; details: H2O2 co-substrate (0.1 mM in all tests), 50 mM phosphate pH 7.0, standard assay 60°C, temperature of kinetics not stated

B1: SviDyP (Saccharomonospora viridis) (protein)
chain: MKGRRFGRRAFLATGAAALGGAAALGGRELFTGDGGADGRDRPDRGDIGRATVDFHGERQAGVATPAQAFATFVAFDLLDGVDREALIRWMRVWTDDIERLTRGAPALTDTEPELALLPARLTVTVGFGPGFLAAAGREELRPSWLAPLPEFPIDRLREEFSGGDLVAQVCADDEVTVAHAVRVLTKQARSFARPRWVQRGFRNTPGAVPEGATMRNLMGQLDGTRNLRPGPDDRLIWISDGPEWLRGGTGMVVRRIAMNLDTWDELDRPARELVIGRRLDNGAPLTGRHEHDEPDLEAVDERGLSVIPMFAHIRRARSDNPDERFLRRSYNYDDPPEPGELSNSGLVFVTFQADIEAQFTPIQRRLAELDSLNDWTTPIGSAVFAVPRGCRPGEYLGQPLLEA
notes: Ni-NTA and Sephadex G-75; tag removal not mentioned; ~45 kDa on SDS-PAGE
Question: B1 was tested. Which Km (purified protein [1]) did it give?
Answer: Its Km is 210.2 ± 16.5 µM.

Question: What about the Km (purified protein [2]) of the same protein?
Answer: The Km was 58.87 ± 4.7 µM.
